Earlier results on one substance are cited in patent publication US20090011987A1, “Use of Glp-2 for the Treatment of Ischemia-Reperfusion Injury” (Novo Nordisk A/S, priority 2005, published 2009).

The conditions of this data set: adult human plasma.

With “GLP-2(1-33) [wild type human GLP-2(1-33)]”, the half-life result is “lower than 2 hours”.
